According to the Human Domainome abundance scans (Beltran et al. 2025):
± gives the uncertainty stated by the source.

B1: CD2-associated protein, residues 109 to 169; numbered along this chain, Q9Y5K6 (parent)
chain: KKRQCKVLFEYIPQNEDELELKVGDIIDINEEVEEGWWSGTLNNKLGLFPSNFVKELEVTD

Variants of: B1
Test: abundance fitness (aPCA) (normalised: wild type 0, dead -1); higher = more abundant; growth selection in yeast, the domain comes from the species named
Conditions: Homo sapiens

Variant | abundance fitness
N44M | -0.318 ± 0.16
N44Q | -0.183 ± 0.24
N44P | -0.356 ± 0.37
N44Y | -0.483 ± 0.33
N44A | -0.048 ± 0.14
N44L | -0.489 ± 0.14
N44K | 0.019 ± 0.24
N44S | -0.261 ± 0.18
N44R | -0.273 ± 0.16
N44V | -0.795 ± 0.25
F53H | 0.054 ± 0.22
F53G | -0.48 ± 0.17
F53I | 0.149 ± 0.11
F53S | 0.037 ± 0.096
F53P | -0.525 ± 0.2
F53A | 0.015 ± 0.13
F53N | -0.109 ± 0.12
F53Y | 0.019 ± 0.22
F53M | 0.057 ± 0.13
F53L | -0.157 ± 0.093
F53C | 0.067 ± 0.12
F53K | -0.031 ± 0.15
F53R | 0.007 ± 0.079
F53E | -0.894 ± 0.45

Variant | abundance fitness
F53Q | -0.2 ± 0.13
F53T | -0.255 ± 0.19
F53W | -0.56 ± 0.31
K55D | -0.313 ± 0.25
K55A | -0.01 ± 0.087
K55C | -0.142 ± 0.11
S51N | -0.769 ± 0.4
S51K | -0.12 ± 0.13
S51C | -0.311 ± 0.16
S51F | -0.431 ± 0.26
S51P | -0.429 ± 0.12
S51L | -0.366 ± 0.088
S51A | 0.09 ± 0.07
S51R | -0.361 ± 0.091
S51M | -0.138 ± 0.11
S51E | -0.762 ± 0.33
S51V | -0.069 ± 0.067
S51T | -0.047 ± 0.11
S51G | -0.35 ± 0.086
S51D | -0.324 ± 0.24
S51Q | -0.307 ± 0.15
S51W | -0.093 ± 0.11
S51I | -0.178 ± 0.27
N52H | -0.348 ± 0.21

Variant | abundance fitness
N52P | -0.228 ± 0.12
N52A | -0.067 ± 0.092
N52Q | -0.255 ± 0.11
N52S | -0.02 ± 0.079
N52L | -0.287 ± 0.096
N52D | -0.016 ± 0.1
N52F | -0.228 ± 0.24
N52C | 0.114 ± 0.13
N52Y | -0.34 ± 0.15
N52R | 0.048 ± 0.079
N52E | 0.053 ± 0.086
N52K | 0.048 ± 0.16
N52M | -0.12 ± 0.17
N52W | -0.454 ± 0.12
F49R | -1.3 ± 0.26
F49T | -0.921 ± 0.29
F49S | -0.707 ± 0.16
F49Y | -0.27 ± 0.4
F49D | -0.815 ± 0.4
F49W | -1.01 ± 0.25
F49C | -0.953 ± 0.34
F49K | -0.524 ± 0.3
F49L | -0.77 ± 0.15
F49E | -0.872 ± 0.45

Variant | abundance fitness
F49G | -1.06 ± 0.27
F49A | -0.755 ± 0.31
N43V | -0.679 ± 0.21
N43T | -0.835 ± 0.21
N43Y | -0.553 ± 0.34
P50G | -0.697 ± 0.17
P50V | -1.03 ± 0.41
P50T | -0.367 ± 0.16
P50S | -0.465 ± 0.13
P50L | -0.665 ± 0.17
P50Q | -0.279 ± 0.17
P50R | -0.064 ± 0.075
P50K | -0.226 ± 0.12
P50W | -0.764 ± 0.14
P50A | -0.941 ± 0.31
P50M | -0.57 ± 0.21
P50N | -0.045 ± 0.16
P50H | 0.078 ± 0.17
G47S | -1.05 ± 0.26
G47K | -0.773 ± 0.23
G47Q | -0.696 ± 0.17
G47M | -1.21 ± 0.4
G47D | -0.611 ± 0.19
G47F | -0.784 ± 0.28

Variant | abundance fitness
G47L | -0.922 ± 0.16
G47T | -0.644 ± 0.16
G47P | -0.82 ± 0.17
G47W | -0.759 ± 0.18
G47Y | -0.434 ± 0.19
G47N | -0.723 ± 0.41
G47I | -0.584 ± 0.35
L48M | -0.107 ± 0.08
L48F | -0.19 ± 0.1
L48W | -0.201 ± 0.1
L48K | 0.197 ± 0.073
L48H | -0.291 ± 0.11
L48E | -0.539 ± 0.14
L48R | 0.273 ± 0.074
L48G | -0.618 ± 0.11
L48D | -0.821 ± 0.21
L48V | -0.067 ± 0.055
L48T | -0.021 ± 0.084
L48C | -0.094 ± 0.13
L48S | -0.438 ± 0.091
L48Y | -0.033 ± 0.082
L48I | -0.022 ± 0.13
L48Q | -0.298 ± 0.092
L48N | -0.187 ± 0.14

Variant | abundance fitness
L48P | -0.403 ± 0.12
L46N | 0.074 ± 0.056
L46V | 0.047 ± 0.071
L46Q | 0.022 ± 0.099
L46W | 0.013 ± 0.079
L46I | 0.169 ± 0.049
L46T | 0.151 ± 0.055
L46P | -0.196 ± 0.074
L46C | 0.127 ± 0.058
L46H | 0.035 ± 0.051
L46G | -0.303 ± 0.076
L46Y | 0.011 ± 0.049
L46M | 0.006 ± 0.1
L46S | 0.113 ± 0.044
L46K | 0.069 ± 0.099
L46E | 0.138 ± 0.11
L46F | 0.092 ± 0.046
L46D | 0.034 ± 0.082
L46A | 0.031 ± 0.069
K45A | -0.779 ± 0.21
K45S | -0.603 ± 0.15
K45T | -0.458 ± 0.21
K45V | -0.556 ± 0.16
K45R | -0.066 ± 0.078

Variant | abundance fitness
K45I | -0.433 ± 0.29
K45E | -0.453 ± 0.18
K45N | -0.183 ± 0.2
K45Y | -0.273 ± 0.3
K45F | -0.695 ± 0.22
K45C | -0.065 ± 0.17
K45L | -0.638 ± 0.14
K45M | -0.55 ± 0.28
K45Q | 0.04 ± 0.26
V54A | -0.52 ± 0.15
V54W | -0.903 ± 0.24
V54S | -0.94 ± 0.36
V54T | -0.222 ± 0.15
V54F | -0.416 ± 0.33
V54C | 0.125 ± 0.26
V54P | -0.816 ± 0.27
V54L | -0.753 ± 0.15
V54N | -0.84 ± 0.44
V54G | -0.661 ± 0.16
V54M | -0.63 ± 0.23
V54Q | -0.546 ± 0.41
V54R | -0.969 ± 0.31
V54I | -0.113 ± 0.12
